Measurements published in article PMC9508154.

Target: eIF5-CTD_(-CTT)-EE, phosphomimetic mutant S389E/S390E (human) (UniProt P55010)
Experiment: NMR titration

UniProt P55010, sequence (P55010 232-431 S389E/S390E): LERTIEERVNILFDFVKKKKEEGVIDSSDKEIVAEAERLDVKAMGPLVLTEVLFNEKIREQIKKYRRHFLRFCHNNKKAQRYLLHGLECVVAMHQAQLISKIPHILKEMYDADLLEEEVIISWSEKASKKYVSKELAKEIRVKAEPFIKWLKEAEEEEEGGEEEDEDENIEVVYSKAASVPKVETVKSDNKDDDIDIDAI

Substance | % CSP reduction at E17 of eIF1A-ΔC bound to m7 [%] | % CSP reduction at G5 of eIF1A-ΔC bound to m7 [%] | % CSP reduction at L25 of eIF1A-ΔC bound to m7 [%] | % CSP reduction at V26 of eIF1A-ΔC bound to m7 [%] | % CSP reduction at W69 of eIF1A-ΔC bound to m7 [%] | % CSP reduction at Y83 of eIF1A-ΔC bound to m7 [%]
N-terminal tail of the β subunit of eIF2 (eIF2β-NTT) (domain or fragment) | 83 | 95 | 62 | 38 | 63 | –
eIF1A N-terminal tail (eIF1A-NTT) (domain or fragment) | 32 | 40 | 20 | 24 | 22 | 18
